Test results as given in article PMC11044105, “Overcoming Lot-to-Lot Variability in Protein Activity Using Epitope-Specific Calibration-Free Concentration Analysis” (Analytical Chemistry, 2024).

Target: T1, ProteinA (UniProt P38507)
T1 construct: the form on the sensor is not described; Sensor-chip Protein A is probably a recombinant form; also called ProteinA sensor chip; ProteinA-CM5; source: on SPR sensor chips (ProteinA chip or ProteinA-conjugated CM5 chip)
Assay: SPR; calibration-free concentration analysis (CFCA) on Biacore T200, 1x PBST; NISTmAb 8671 as analyte over ProteinA/ProteinG sensors to assign form factors
Conditions: both partners purified

B1: NISTmAb 8671 (antibody, V domains shown)
VH: QVTLRESGPALVKPTQTLTLTCTFSGFSLSTAGMSVGWIRQPPGKALEWLADIWWDDKKHYNPSLKDRLTISKDTSKNQVVLKVTNMDPADTATYYCARDMIFNFYFDVWGQGTTVTVSS
VL: DIQMTQSPSTLSASVGDRVTITCSASSRVGYMHWYQQKPGKAPKLLIYDTSKLASGVPSRFSGSGSGTEFTLTISSLQPDDFATYYCFQGSGYPFTFGGGTKVEIK
binding result: binds
